Columns and labels:
GST-OsWRKY76 [1] = target: T1, GST-OsWRKY76 (Oryza sativa, UniProt Q6EPZ2 1-327); assay: EMSA; EMSA as in Gao et al. 2019; buffer, salt, pH and temperature not stated; details: protein: recombinant; tags: N-terminal GST (pGEX-4T-3); label: 6-FAM 5' end (strand(s) not specified); blunt
T1 sequence: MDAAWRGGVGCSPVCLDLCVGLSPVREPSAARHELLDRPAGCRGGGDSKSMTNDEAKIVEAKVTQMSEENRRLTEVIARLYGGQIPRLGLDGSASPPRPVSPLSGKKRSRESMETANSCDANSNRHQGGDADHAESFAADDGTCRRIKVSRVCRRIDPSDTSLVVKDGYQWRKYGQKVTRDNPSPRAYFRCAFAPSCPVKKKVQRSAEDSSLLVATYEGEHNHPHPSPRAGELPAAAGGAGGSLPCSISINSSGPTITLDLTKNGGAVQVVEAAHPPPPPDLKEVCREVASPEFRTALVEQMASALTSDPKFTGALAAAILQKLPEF

GST-OsWRKY76 [2] = target: T1, GST-OsWRKY76; assay: competition; 10x and 50x molar excess of unlabeled probe reduced the N1 shift; EMSA as in Gao et al. 2019; buffer, salt, pH and temperature not stated; details: protein: recombinant; tags: N-terminal GST (pGEX-4T-3); blunt

B1: OsDREB1E probe (6-FAM) (dsDNA)
DNA 1: GCACGGGTAGTTTTGACCTATAGGAGTGTA
DNA 2: TACACTCCTATAGGTCAAAACTACCCGTGC
binding result (GST-OsWRKY76 [1]): binds

B2: OsDREB1E unlabeled competitor probe (dsDNA)
DNA 1: GCACGGGTAGTTTTGACCTATAGGAGTGTA
DNA 2: TACACTCCTATAGGTCAAAACTACCCGTGC
binding result (GST-OsWRKY76 [2]): binds

Source: paper PMC10113545, “OsWRKY76 positively regulates drought stress via OsbHLH148-mediated jasmonate signaling in rice”
